Assay: yeast display, Sf9 membrane polyspecificity reagent, FACS + sequencing; frameworks hold sequencing errors
Method in brief: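 After 36–48 hours of galactose induction, yeast (Saccharomyces cerevisiae BJ5465) displaying a synthetic nanobody library were stained at 4 °C for 1 hour with 10% biotinylated, detergent-solubilized Sf9 membrane reagent. Streptavidin microbeads enriched the stained cells before FACS sorting into low and high (top ~1%) gates on anti-HA and streptavidin fluorescence. Each clone's polyreactivity label reflects its gate of origin.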

Sequence | polyreactivity (PSR sort gate)
QVQLVESGGGLVQAGGSLRISSAASGLTFYRYAIGWYRQAPGKERELVAAIRSNVVTTYYADSVKGRFTISRDNAKNTVYLKMNSLKPEDTAVYYCAARFGRSAPPGYDYWGQGTQVTVSS | high polyreactivity
QVQLVESGGGLVQAGGSLRISSAASGSTFSRYAMGWYRQAPGKERELVAAISWRGGRTYYADSVKGRFTISRDNAKNTVYLQMNSLKPEDTAVYYCNAVSSFTSPRYDYWGQGTQVTVSS | high polyreactivity
QVQLVESGGGLVQAGGSLRISWAASGSTFGYYAMGWYRQAPGKDREWVAAISLGGGSTYYADSVKGRFTISRDNAKNTVYLQMNSLKPDDTAVYYCAARPYVRVKWKFNYWGQGTQVTVSS | low polyreactivity
QVQLVESGGGLVQAGGSLRITCAASGSIFTGNAMGWYRQAPGKERELVAAISSSGGSTYYADSVKGRFTLSRDNAKNTVYLQMNSMKPEDTAVYYCAAYNNFLQYDYWGQGTQVTVSS | low polyreactivity
QVQLVESGGGLVQAGGSLRITCAASGSTYYHNVMGRYRPAPGKERELVARISSGGGSTSYADSVKGRFTISRDNAKNTVYLQMNSLKPEETAVYYCNKYYTKRGYFLPWYHYGSWGQGTQVTLSS | high polyreactivity
QVQLVESGGGLVQAGGSLRLAVLPPELTSTLNDMGWYRQAPGKERELVAAITRGGSTNYADSVKGRFTISRDNAKYTFYLQMNSMKPEDSAVYYCAAPYAGLRDGGDYWGQGTQVTVSS | low polyreactivity
QVQLVESGGGLVQAGGSLRLCCAASGITFNYYTMGWYRQAAGNERELVAAIRSGGRTYYADSVKGRFTISRDNAKNTVYLQMNSLKPEDTAVYYGAALAVTYPYDYWGQGTQVTVSS | high polyreactivity
QVQLVESGGGLVQAGGSLRLCCAASGSTFGYYAMGWYRQAPGKDRELVAVITWNGGGTYYADSVKGRFTISRDNAKNTVYLQMNSLKPEDTAVYDCAADASLYTDEYDYWGQGTQVTVSS | low polyreactivity
QVQLVESGGGLVQAGGSLRLCCAASGSTFYYYAMGWYRQAPGKVRELVASITTGGGSTYYADSVKGRFTISRDNAKNTVYLQMNSLKPEDTAVSYCAAALAYYYWWYDYWGQGTQVTASS | low polyreactivity
QVQLVESGGGLVQAGGSLRLCCAATGSIFPGNAMGWYRQAPGKEMELVATNTWSGGSTYYADSVKGRFTISRDNAKNTVYFQMKSLKPVDTAVYYCKADSSWFYQWKDYGMYDYWGQGTQVTVSS | low polyreactivity
QVQLVESGGGLVQAGGSLRLICAAAGFIFKRYAMGWYRQAPGKERELVAAITSNGGRTYYADSVKGRFTISRDNAKNTVYFQMNSLKPEDTEVYYCARVSQYYEQDDYWGQGTQVTVSS | high polyreactivity
QVQLVESGGGLVQAGGSLRLICAASASIFQPYAMGWYRQAPGKERELVAAISKSGGNTYYADSVKGRFSSSRDYAKNTVYLQMNRLKPEVSAVYYCAALDYWGQGTQVTLSS | low polyreactivity
QVQLVESGGGLVQAGGSLRLICAASGFAFSYYAMGWYRQAPGKEREFVASIDWSGGSTYYADSVKGRFTISRDNEKNTVYLQMNSLKPEDTAVYYCAAELDYFPGYDYWGQGTQVTVSS | low polyreactivity
QVQLVESGGGLVQAGGSLRLICAASGFIFASNAMGWYRQAPGTERELVASITRGGTTKYADSVKGRFTISRDNAKNTVYLQMNSLKPEDTAVYYCAKRYVRFPWRMDYWGQGTQVTVSS | high polyreactivity
QVQLVESGGGLVQAGGSLRLICAASGFIFDAYAMGWYRQAPGKERELVAAISRTGGSTYYADSVKGRFTISRDNAKNTVYLQMNSLKPEDTAVYYCTAYKSHDDYYWGQGTQITVSS | high polyreactivity
QVQLVESGGGLVQAGGSLRLICAASGFIFDPYAMGSYRQATGKVRELVAAISSGGSTYYADSVKGRFTISRDNAKNTVYLQMNSLKPEDNAVYYCAKVYVRYDSSTQTYLNTYGYWGQGTQVTVSS | high polyreactivity
QVQLVESGGGLVQAGGSLRLICAASGFIFFINDMGWYRQAPGKEREWVAAISWSGGSTYYADSVKGRFTISRDNEKNNFYIQMNSLKAEETAGYYFKTDVPTAQYDYWGQGTQVTVSS | low polyreactivity
QVQLVESGGGLVQAGGSLRLICAASGFIFGHNAMGWYRQAPGKERELVAAITWRGRTYYADSVKGRFTISRDNAKNCVYLQMNSMKPEDTSVFSCNAYVRYGYDYWGQGTQVTVSS | high polyreactivity
QVQLVESGGGLVQAGGSLRLICAASGFIFNSNAMGWYRQAPGKERELVAAISGRGGSTYYADSVKGRVTISRDNAKNTVYLQMNSLKPEDTAVYYCAAKLRPRYYVSGYDYWGQGTQVTVSS | high polyreactivity
QVQLVESGGGLVQAGGSLRLICAASGFIFPHNTMGWYRQAPGKERELVAAISSGGSTNYADSVKGRFTLSRDNAKNTVYLQMNSLKPEDTAVYYCATVSVRWPSNDHVRYDYWGQGTQVTVSS | low polyreactivity
QVQLVESGGGLVQAGGSLRLICAASGFIFRTNAMGWYRQAPGKQRELVAAISRSGNTYYADSVKGRFTISRDNAKNTVYLQMNSLKPEDTAVYYCAAQSVRWYSTFKYYYWGQGTQVTVSS | high polyreactivity
QVQLVESGGGLVQAGGSLRLICAASGFIFTSYTMGWYRQAPGKERELVAAISRSGGRTYYADSVKGRFTISRDNAKNTVYLQMNRLKPVDTAVYYCNAGYPASYYYYGFDYWGQGTQVTVSS | high polyreactivity

Reference: the nanobody polyreactivity screen of Harvey et al. (2022)
